Assay results taken from the supplement of paper PMC10567573.
± gives the standard deviation.

Assay: protein stability index of a GFP-peptide fusion (GPS, HEK-293T) (PSI 1-6); higher = more stable
Details: c terminus: a fixed tail appended
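Also: 24-mer peptide tiles fused after GFP, lentivirally expressed, FACS-sorted into six equal bins by GFP/DsRed ratio, decoded by Illumina sequencing, PSI is the read-weighted mean bin number.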

Sequence	protein stability index (treatment: DMSO)	protein stability index (treatment: MLN4924 1 uM, 8 h)
GSDYVNANYIDGYRKQNAYIATQG [PTPRD]	3.51 ± 1.2	3.46 ± 0.28
ANTTPSGKSVSSSSSVETGPSVSE [SPATS1]	5.32 ± 0.23	5.31 ± 0.23
RVKLEEDPDGEEGSSIPWNHLPDP [ZNF24]	5.18 ± 0.2	5.19 ± 0.17
SRSAILIQHRRTHTDSKYEHAIAE [ZNF396]	3.63 ± 0.15	3.72 ± 0.19
LEDGQTPLHLSALRDDVLCARMLY [ASB7]	2.67 ± 0.29	2.93 ± 0.33
EGQDLQHISNQKMPTGPPEDRLSL [DRICH1]	5.11 ± 0.37	5.03 ± 0.26
LRQLTAELAEHRCHPVERGIKSKE [PSD2]	3.99 ± 0.26	4.2 ± 0.043
DVGDWRKNIEEKSGMEGRKKMFES [TNNI2]	4.3 ± 0.14	4.38 ± 0.25
LHSGLVHGLAFWFDVAFIGSIMTV [CARM1]	3.87 ± 0.46	3.56 ± 1.3
YTSGTTGIPKGVMLSHDNITWIAG [ACSBG2]	2.37 ± 0.36	2.21 ± 0.31
PMKSAPVMLTLSDSKHVVLPVDDD [RBBP5]	5.08 ± 0.12	5.07 ± 0.08
GVKRKADTTTPTTSAITASRSESP [BRD3]	5.22 ± 0.15	5.19 ± 0.16
LDLMPRLMTSKPAEVVKILQTMLR [INTS4]	2.23 ± 0.16	2.13 ± 0.15
TLYANNVQRVMAQALGIPATECEF [LPCAT4]	2.49 ± 0.22	2.58 ± 0.19
GFGVLRLDADAAQRVVYLEGCGPP [TSPAN10]	2.88 ± 0.33	2.65 ± 0.13
RFRFGQDQLLLATGLNNGRIKIWD [WSB1]	2.25 ± 0.33	2.5 ± 0.32
EEPELSPAYLISEAMRRSRMSLYC [GFOD1]	2.43 ± 0.23	2.37 ± 0.3
VTGPDNGVRESETEQGFGEDLEDL [NFE2L1]	5.79 ± 0.27	5.62 ± 0.35
RGTPPRRHSFRKHLYLLRGLPGSG [N4BP2L1]	2.64 ± 0.3	2.94 ± 0.21
GRDELGGGRRPGTSPALLQGTAEE [CDKN1A]	5.4 ± 0.34	5.41 ± 0.24
GGQCCRRQDSPSPDFYKQSSPNLQ [PCDHGC5]	3.77 ± 0.33	3.78 ± 0.23
MARGRKMSKPRAVEAAAAAAAVAA [KMT5A]		4.4 ± 0.55
VIAYDHSRVLLSAIEGIPGSDYVN [PTPRD]	1.89 ± 0.5	1.79 ± 0.28

Sequence	protein stability index (treatment: DMSO)	protein stability index (treatment: MLN4924 1 uM, 8 h)
EKEEDHAPEFIKVRENLRRIATLT [FAM107A]	2.58 ± 0.56	2.81 ± 0.6
RKYFADLAMNYKHGDPIPKVEFTE [TPH1]	3.31 ± 0.32	3.3 ± 0.24
PVCYQCLEEGKHSSHEVKALGAMW [TRIM9]	2.64 ± 0.35	2.76 ± 0.32
MSRRTRCEDLDELHYQDTDSDVPE [MYBL2]	5.33 ± 0.2	5.59 ± 0.2
RDVYLPAGKWRSYKGELFDKTPVL [MYORG]	2.32 ± 0.3	2.51 ± 0.18
KSLDGVTNDRTASQGQWGRAWEVD [DHCR7]	4.47 ± 0.11	4.465 ± 0.035
TKQRIQDQKVPYIFRDNQWVGFDD [CHIT1]	3.49 ± 0.47	3.69 ± 0.4
RFNQVLKNLLHAEFLRVQEERILH [VPS39]	2.47 ± 0.81	2.46 ± 0.38
EIKDKDQLVLRTKEAFDTIQEQKV [SASS6]	4.54 ± 0.25	4.53 ± 0.46
NVGEISVSTRLTVLREDQIPRGFP [PTPRD]	3.31 ± 0.54	3.44 ± 0.44
KVENLTLKNHFQSVLEQLELQEKQ [TAF7L]	3.54 ± 0.13	3.96 ± 0.094
PASQHSTPAGLPPSRAKPPTEGAG [FBF1]	5.39 ± 0.3	5.293 ± 0.028
YSHRETVNGSWYIQDLCEMLGKYG [CASP6]	1.93 ± 0.39	2.1 ± 0.35
ASGQSYSSREVFTSSSSSSSRQTR [KRT16]	4.84 ± 0.15	4.8 ± 0.21
HICTNYNSVCSKFRKEIKSKSADN [RHOBTB1]	3.37 ± 0.21	3.54 ± 0.15
RMYPFQIHSIALSTFASLIGPFGG [CDS2]	2.79 ± 0.33	2.61 ± 0.5
RGCSVKIWTAHYDPGHCFAESREL [ALG2]	2.21 ± 0.26	2.11 ± 0.52
TASDGGDPLRSGTVLVSVTVFDAN [PCDHGA10]	2.31 ± 0.52	2.13 ± 0.091
RAPEVLLQSTYATPVDMWSVGCIF [CDK4]	2.7 ± 0.28	2.35 ± 0.34
LELSYGFENGQKAAVVHHFESFPA [TOR1AIP2]	2.52 ± 0.58	2.42 ± 0.18
ILEHAHRGEQTTSQVSWEQDLKLF [FCHSD1]	3.43 ± 0.44	3.53 ± 0.68
VAACAQTVVSLAAAGQPTPPTSPE [CEBPD]	5 ± 0.78	5.29 ± 0.33
